Assay results: US20160138049A1, “OXYGEN-TOLERANT CoA-ACETYLATING [sequence] DEHYDROGENASE CONTAINING PATHWAY FOR BIOFUEL PRODUCTION” (The Regents of the University of California, priority 2013, published 2016)

Tests used:
[1] = test system: CC(=O)SCCNC(=O)CCNC(=O)[C@H](O)C(C)(C)COP(=O)(O)OP(=O)(O)OC[C@H]1O[C@@H](n2cnc3c(N)ncnc32)[C@H](O)[C@@H]1OP(=O)(O)O; assay: purified protein, by the assay type; details: other: pH 7.15, 30° C., 500 μM NADH, 1 mM DTT, acyl-CoA 0.03 mM to 2 mM
Experimental: (§3) Enzyme assays were conducted by using Bio-Tek PowerWave XS microplate spectrophotometer. CoA-acylating aldehyde dehydrogenase activity was measured by the decrease of absorbance at 340 nm, corresponding to depletion of NADH. […] The addition of the acyl-CoA initiated the reaction. kcat and Km were determined by nonlinear regression fitting to Michaelis-Menten equation using graphing software Origin.

[2] = test system: CCCC(=O)SCCNC(=O)CCNC(=O)[C@H](O)C(C)(C)COP(=O)(O)OP(=O)(O)OC[C@H]1O[C@@H](n2cnc3c(N)ncnc32)[C@H](O)[C@@H]1OP(=O)(O)O; assay: purified protein, by the assay type; details: other: pH 7.15, 30° C., 500 μM NADH, 1 mM DTT, acyl-CoA 0.03 mM to 2 mM
Experimental: as §3

[3] = CoA-acylating aldehyde dehydrogenase (PduP) assay, butyryl-CoA reduction; type: biochemical; details: purified under aerobic condition; 500 μM NADH, 1 mM DTT, pH 7.15, 30° C.
Experimental: Protein purification was done by using His-Spin Protein miniprep purification kit from Zymo following manufacturer's manual. Overnight culture of E. coli strain BL-21(DE3) harboring different pCDF-pdup plasmid was used to inoculate fresh 20 ml LB. The newly inoculated culture was incubated at 37° C. until OD600 nm reaches 0.6 which was then induced with 1 mM IPTG. The induced cultures were then incubated overnight in 30° C. rotary shaker to allow protein expression. The cultures were then harvested by centrifugation at 4,300×g for 20 min. The pellet was then resuspended with 1 mL of Zymo His-binding buffer and mixed with 1 mL of 0.1 mm glass beads (Biospec). The sample was then homogenated using TissueLyser II (Quiagen).
(§1) Enzyme assays were conducted by using Bio-Tek PowerWave XS microplate spectrophotometer. CoA-acylating aldehyde dehydrogenase activity was measured by the decrease of absorbance at 340 nm, corresponding to depletion of NADH. […] For determining specific activity for other chain length acyl-CoA, 500 μM was used. The mixture excluding acyl-CoA was incubated for 5 minutes at 30° C. The addition of the acyl-CoA initiated the reaction. kcat and Km were determined by nonlinear regression fitting to Michaelis-Menten equation using graphing software Origin.
(§2) To characterize these PduP homologues, plasmids harboring individual pduP genes were constructed with a poly-His6 tag (plasmids pCDF-pduP_ahyd, pCDF-pdup_kpne, pCDF-pdup_lbre, pCDF-pdup_lmon, pCDF-pdup_sent, and pCDF-pdup_pgin). PduP homologues were then purified under aerobic condition without cleaving off His tags. The activities of the enzymes were determined using acyl-CoA with different chain lengths, and the disappearance of NADH was monitored.
The efficiency of these PduP homologues were assessed.

[4] = Substrate chain length specificity of PduP; type: biochemical; details: acyl-CoA chain lengths C2 to C12
Experimental: FIG. 3A-B Substrate chain length specificity of CoA-acylating aldehyde dehydrogenases, PduP. A) Specific activity of different PduP (pmol min^−1 mg^−1). B) Relative activity of PduP. Specific activity was determined with substrate concentration of 1 mM acyl-CoA, 500 uM NADH, 1 mM DTT in 50 mM potassium phosphate buffer at pH 7.15 at 30° C.
as §1, §2

Molecule	Km [1] [µM]	Km [2] [µM]	Specific activity for butyryl-CoA reduction [3] [µmol/min/mg]	Acyl-CoA substrate favoured (highest specific activity) [4]
Listeria monocytigenes PduP, CoA-acylating propionaldehyde dehydrogenase (PduP_L.mon, NP_464690, SEQ ID NO:49 and 50), poly-His6 tagged (Listeria monocytogenes EGD-e)	92.6 ± 20.1	71.7 ± 20.3	–	–
Salmonella enterica PduP, CoA-acylating propionaldehyde dehydrogenase (PduP_S.ent, AAD39015, SEQ ID NO:33 and 34), poly-His6 tagged (Salmonella enterica subsp. enterica serovar Typhimurium str. LT2)	342.1 ± 94.8	87.0 ± 24.8	–	–
Klebsiella pneumoniae PduP, CoA-acylating propionaldehyde dehydrogenase (PduP_K.pne, YP_001336844, SEQ ID NO:45 and 46), poly-His6 tagged (Klebsiella pneumoniae subsp. pneumoniae NTUH-K2044)	181.4 ± 25.1	56.0 ± 25.9	–	–
Porphyromonas gingivalis PduP, CoA-acylating propionaldehyde dehydrogenase (PduP_P.gin, YP_001928839, SEQ ID NO:51 and 52), poly-His6 tagged (Porphyromonas gingivalis ATCC 33277)	75.9 ± 25.1	256.0 ± 40.5	–	–
A. hyd: PduP homologue from Aeromonas hydrophila, YP_855873; SEQ ID NO:43 and 44 (protein, listed as Aeromonas hydrophila) MLSRQNARELVRNAKQAQVIMATFSQQKIDAIVKNVAEEAARHAETLAKMAAEETGFGNWQDKVLKNRFASLHVYDAIKEMKTVGIIHDDQAKKVMDVGVPLGVICALVPSTNPTSTIFYKTLIALKAGNAIIFSPHPGARQCSWKAIEIVKRAAEAAGAPAGIVDGVTQLTLEATSELMHSKDVSLILATGGEGMVRAAYASGTPTISGGPGNGPAFIERSADIHQAVKDIITSKTFDNGVICASEQSIIVERCIYDEVHRELAAQGAYFMNEDEAARMAALLLRPNGTINPKVVGKTALHLSQLAGFSVPPSTRVLVAEQTTVSHSNPYSREKLCPVLGLYVEEEWRAACHRVVELLTNEGLGHTLVIHTRNQDVIRQFSLEKPVNRILINTPAALGGIGATTNLTPALTLGCGAVGGGSSSDNVGPMNLLNIRKVGYGVRTIEELRAPIQPVAVQPASAAPTAPQPCSILDDARFSAPAPACHSADDRFAGASAEVGGEISEQNVERVIRQVLERLGK	–	–	1.7 ± 0.6	–
P. gin: PduP homologue from Porphyromonas gingivalis, YP_001928839; SEQ ID NO:51 and 52 (protein, listed as Porphyromonas gingivalis) MEIKEMVSLARKAQKEYQATHNQEAVDNICRAAAKVIYENAAILAREAVDETGMGVYEHKVAKNQGKSKGVWYNLHNKKSVGILNIDERTGMIEIAKPIGVVGAVTPTTNPIVTPMSNIIFALKTCNAIIIAPHPRSKKCSAHAVRLIKEAIAPFNVPEGMVQIIEEPSIEKTQELMGAVDVVVATGGMGMVKSAYSSGKPSFGVGAGNVQVIVDSNIDFEAAAEKIITGRAFDNGIICSGEQSIIYNEADKEAVFTAFRNHGAYFCDEAEGDRARAAIFENGAIAKDVVGQSVAFIAKKANINIPEGTRILVVEARGVGAEDVICKEKMCPVMCALSYKHFEEGVEIARTNLANEGNGHTCAIHSNNQAHIILAGSELTVSRIVVNAPSATTAGGHIQNGLAVTNTLGCGSWGNNSISENFTYKHLLNISRIAPLNSSIHIPDDKEIWEL	–	–	0.49 ± 0.2	dodecanoyl-CoA
S. ent: CoA-acylating propionaldehyde dehydrogenase (PduP) from Salmonella enterica, AAD39015; SEQ ID NO:33 and 34 (protein, listed as Salmonella enterica) MNTSELETLIRTILSEQLTTPAQTPVQPQGKGIFQSVSEAIDAAHQAFLRYQQCPLKTRSAIISAMRQELTPLLAPLAEESANETGMGNKEDKFLKNKAALDNTPGVEDLTTTALTGDGGMVLFEYSPFGVIGSVAPSTNPTETIINNSISMLAAGNSIYFSPHPGAKKVSLKLISLIEEIAFRCCGIRNLVVTVAEPTFEATQQMMAHPRIAVLAITGGPGIVAMGMKSGKKVIGAGAGNPPCIVDETADLVKAAEDIINGASFDYNLPCIAEKSLIVVESVAERLVQQMQTFGALLLSPADTDKLRAVCLPEGQANKKLVGKSPSAMLEAAGIAVPAKAPRLLIALVNADDPWVTSEQLMPMLPVVKVSDFDSALALALKVEEGLHHTAIMHSQNVSRLNLAARTLQTSIFVKNGPSYAGIGVGGEGFTTFTIATPTGEGTTSARTFARSRRCVLTNGFSIR	–	–	27 ± 14	highest for propionyl-CoA reduction
L. mon: PduP homologue from Listeria monocytigenes, NP_464690; SEQ ID NO:49 and 50 (protein, Listeria monocytogenes) MESLELEKLVKKVLLEKLAEQKGIPVKTMTKGAKSGVFDTVDEAVQAAVIAQNSYKEKSLEERRNVVKAIREALYPEIESIAARAVAETGMGNVADKILKNTLAIEKTPGVEDLYTEVATGDNGMTLYELSPYGVIGAVAPSTNPTETLICNTIGMLAAGNAVFYSPHPGAKNISLWLIEKLNTIVRESCGVDNLVVTVEKPSIQAAQEMMNHPKVPLLVITGGPGVVLQAMQSGKKVIGAGAGNPPSIVDETANIEKAAADIVDGASFDHNILCIAEKSVVAVDSIADFLMFQMEKNGALHVTNPSDIQKLEKVAVTDKGVTNKKLVGKSASEILKEAGIACDFSPRLIIVETEKTHPFATVELLMPIVPVVRVPNFEEALEVAIELEQGLHHTATMHSQNISRLNKAARDMQTSIFVKNGPSFAGLGFRGEGSTTFTIATPTGEGTTTARHFARRRRCVLTDGFSIR	–	–	17 ± 2	highest for propionyl-CoA reduction
